Measured values from US20140213531A1 (POLYPHOR, published 2014).
Bridges are numbered along the chain shown (N, C = ends). [ ]: non-standard residue; d: D form.

T1: Elastase from human neutrophils (human, UniProt P08246 30-247, limits assumed)
T1 sequence (looked up): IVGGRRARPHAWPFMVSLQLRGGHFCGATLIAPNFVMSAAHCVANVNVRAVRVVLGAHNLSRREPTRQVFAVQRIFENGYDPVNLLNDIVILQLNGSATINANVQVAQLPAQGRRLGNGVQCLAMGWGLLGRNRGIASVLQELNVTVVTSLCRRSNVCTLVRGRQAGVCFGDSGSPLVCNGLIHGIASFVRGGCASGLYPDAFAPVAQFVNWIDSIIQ

T2: CathepsinG, from human neutrophils (human, UniProt P08311 21-244)
T2 sequence (looked up): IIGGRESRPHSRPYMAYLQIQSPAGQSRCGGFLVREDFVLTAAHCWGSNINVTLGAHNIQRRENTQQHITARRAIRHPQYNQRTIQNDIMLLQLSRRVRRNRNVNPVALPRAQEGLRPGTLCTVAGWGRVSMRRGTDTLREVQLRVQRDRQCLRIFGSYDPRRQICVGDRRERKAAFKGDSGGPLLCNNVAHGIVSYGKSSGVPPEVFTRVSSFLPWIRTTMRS

T3: Chymase, from human skin (human, UniProt P23946 22-247)
T3 sequence (looked up): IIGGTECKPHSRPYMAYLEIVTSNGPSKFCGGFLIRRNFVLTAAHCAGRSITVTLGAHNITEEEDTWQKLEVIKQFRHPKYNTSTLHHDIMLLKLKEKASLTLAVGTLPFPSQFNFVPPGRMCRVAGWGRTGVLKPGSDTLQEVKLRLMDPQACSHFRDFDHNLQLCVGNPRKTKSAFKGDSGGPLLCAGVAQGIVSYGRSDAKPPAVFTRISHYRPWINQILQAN


Key:
Assay in all cases: cell-based or functional assay
[1] = target: Chymotrypsin, from human pancreas (human, UniProt P17538 19-263)
[2] = target: T1, Elastase from human neutrophils
[3] = target: Urokinase from human urine (human, UniProt P00749 21-431, limits assumed)
[4] = target: Thrombin, from Human Plasma, high activity (human, UniProt P00734 328-622)
[5] = target: Coagulation Factor Xa, from human plasma (human, UniProt P00742 41-488, limits assumed)
[6] = target: Trypsin, Iodination grade, from human pancreas (human, UniProt P07477 24-247)
[7] = target: T2, CathepsinG, from human neutrophils
Chymase, from human skin = target: T3, Chymase, from human skin
[8] = target: Tryptase, from human lung (human, UniProt Q15661 31-275, limits assumed)
Sequence of Tryptase, from human lung (Q15661 31-275 limits assumed): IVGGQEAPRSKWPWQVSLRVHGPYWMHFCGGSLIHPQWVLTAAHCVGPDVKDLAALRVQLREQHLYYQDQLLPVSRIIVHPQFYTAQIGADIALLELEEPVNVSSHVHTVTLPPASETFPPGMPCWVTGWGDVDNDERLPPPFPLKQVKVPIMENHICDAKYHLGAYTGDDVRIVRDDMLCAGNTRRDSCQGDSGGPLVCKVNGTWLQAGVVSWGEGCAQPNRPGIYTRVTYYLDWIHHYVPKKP

Sequence of Chymotrypsin, from human pancreas (P17538 19-263): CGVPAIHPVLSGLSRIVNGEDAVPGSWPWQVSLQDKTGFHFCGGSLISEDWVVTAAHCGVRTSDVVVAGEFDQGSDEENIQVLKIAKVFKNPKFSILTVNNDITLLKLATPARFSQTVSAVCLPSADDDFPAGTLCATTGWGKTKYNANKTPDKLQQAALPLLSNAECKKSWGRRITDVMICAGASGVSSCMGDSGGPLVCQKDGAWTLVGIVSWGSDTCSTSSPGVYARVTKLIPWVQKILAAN
Sequence of Coagulation Factor Xa, from human plasma (P00742 41-488 limits assumed): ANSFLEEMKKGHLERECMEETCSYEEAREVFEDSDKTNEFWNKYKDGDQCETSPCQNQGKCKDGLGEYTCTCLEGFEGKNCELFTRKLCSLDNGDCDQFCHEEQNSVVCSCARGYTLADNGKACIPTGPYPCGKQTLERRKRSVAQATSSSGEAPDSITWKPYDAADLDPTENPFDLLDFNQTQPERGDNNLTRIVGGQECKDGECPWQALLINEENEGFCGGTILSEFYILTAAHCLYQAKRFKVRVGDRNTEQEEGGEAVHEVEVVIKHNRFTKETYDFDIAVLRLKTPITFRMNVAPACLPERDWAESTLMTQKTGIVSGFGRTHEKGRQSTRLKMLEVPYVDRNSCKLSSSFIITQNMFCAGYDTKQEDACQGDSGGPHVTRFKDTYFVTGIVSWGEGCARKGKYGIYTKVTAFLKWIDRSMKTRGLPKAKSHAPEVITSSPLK

Binder	% inhibition at 100 µM [1]	IC50 [2]	% inhibition at 100 µM [3]	% inhibition at 100 µM [4]	% inhibition at 100 µM [5]	% inhibition at 100 µM [6]	IC50 [7]	% inhibition at 100 µM (Chymase, from human skin)	% inhibition at 100 µM [8]
ICTKSDPPXCR (HELM PEPTIDE1{I.C.T.K.S.D.P.P.[Nle].C.R.[dP].P}$PEPTIDE1,PEPTIDE1,2:R3-10:R3|PEPTIDE1,PEPTIDE1,1:R1-13:R2$$$V2.0; SMILES CCCC[C@@H]1NC(=O)[C@@H]2CCCN2C(=O)[C@@H]2CCCN2C(=O)[C@H](CC(=O)O)NC(=O)[C@H](CO)NC(=O)[C@H](CCCCN)NC(=O)[C@H]([C@@H](C)O)NC(=O)[C@@H]2CSSC[C@H](NC1=O)C(=O)N[C@@H](CCCNC(=N)N)C(=O)N1CCC[C@@H]1C(=O)N1CCC[C@H]1C(=O)N[C@@H]([C@@H](C)CC)C(=O)N2) [Example 19]	0%	> 100000 nmol	4%	11%	32%	94%	41 nmol	26.9%	–
ICTKSDPPXCR (HELM PEPTIDE1{I.C.T.K.S.D.P.P.[Cha].C.R.[dP].P}$PEPTIDE1,PEPTIDE1,2:R3-10:R3|PEPTIDE1,PEPTIDE1,1:R1-13:R2$$$V2.0; SMILES CC[C@H](C)[C@@H]1NC(=O)[C@@H]2CCCN2C(=O)[C@H]2CCCN2C(=O)[C@H](CCCNC(=N)N)NC(=O)[C@@H]2CSSC[C@H](NC1=O)C(=O)N[C@@H]([C@@H](C)O)C(=O)N[C@@H](CCCCN)C(=O)N[C@@H](CO)C(=O)N[C@@H](CC(=O)O)C(=O)N1CCC[C@H]1C(=O)N1CCC[C@H]1C(=O)N[C@@H](CC1CCCCC1)C(=O)N2) [Example 20]	0%	> 100000 nmol	6.7%	28%	25%	97%	48 nmol	44.1%	–
FCTXSDPPICY (HELM PEPTIDE1{F.C.T.[Nle].S.D.P.P.I.C.Y.[dP].P}$PEPTIDE1,PEPTIDE1,2:R3-10:R3|PEPTIDE1,PEPTIDE1,1:R1-13:R2$$$V2.0; SMILES CCCC[C@@H]1NC(=O)[C@H]([C@@H](C)O)NC(=O)[C@@H]2CSSC[C@H](NC(=O)[C@H]([C@@H](C)CC)NC(=O)[C@@H]3CCCN3C(=O)[C@@H]3CCCN3C(=O)[C@H](CC(=O)O)NC(=O)[C@H](CO)NC1=O)C(=O)N[C@@H](Cc1ccc(O)cc1)C(=O)N1CCC[C@@H]1C(=O)N1CCC[C@H]1C(=O)N[C@@H](Cc1ccccc1)C(=O)N2) [Example 23]	4%	> 100000 nmol	9%	0%	11%	90%	38 nmol	60%	–
ICTKSDPPXCR (HELM PEPTIDE1{I.C.T.K.S.D.P.P.[Nle].C.R.[dP].P}$PEPTIDE1,PEPTIDE1,2:R3-10:R3|PEPTIDE1,PEPTIDE1,1:R1-13:R2$$$V2.0; SMILES CCCC[C@@H]1NC(=O)[C@@H]2CCCN2C(=O)[C@@H]2CCCN2C(=O)[C@H](CC(=O)O)NC(=O)[C@H](CO)NC(=O)[C@H](CCCCN)NC(=O)[C@H]([C@@H](C)O)NC(=O)[C@@H]2CSSC[C@H](NC1=O)C(=O)N[C@@H](CCCNC(=N)N)C(=O)N1CCC[C@@H]1C(=O)N1CCC[C@H]1C(=O)N[C@@H]([C@@H](C)CC)C(=O)N2) [Example 57]	0%	> 100000 nmol	4%	11%	32%	94%	41 nmol	26.9%	–
ICTKSDPPXCR (HELM PEPTIDE1{I.C.T.K.S.D.P.P.[Cha].C.R.[dP].P}$PEPTIDE1,PEPTIDE1,2:R3-10:R3|PEPTIDE1,PEPTIDE1,1:R1-13:R2$$$V2.0; SMILES CC[C@H](C)[C@@H]1NC(=O)[C@@H]2CCCN2C(=O)[C@H]2CCCN2C(=O)[C@H](CCCNC(=N)N)NC(=O)[C@@H]2CSSC[C@H](NC1=O)C(=O)N[C@@H]([C@@H](C)O)C(=O)N[C@@H](CCCCN)C(=O)N[C@@H](CO)C(=O)N[C@@H](CC(=O)O)C(=O)N1CCC[C@H]1C(=O)N1CCC[C@H]1C(=O)N[C@@H](CC1CCCCC1)C(=O)N2) [Example 58]	0%	> 100000 nmol	6.7%	28%	25%	97%	47.5 nmol	44.1%	–
FCTXSDPPICY (HELM PEPTIDE1{F.C.T.[Nle].S.D.P.P.I.C.Y.[dP].P}$PEPTIDE1,PEPTIDE1,2:R3-10:R3|PEPTIDE1,PEPTIDE1,1:R1-13:R2$$$V2.0; SMILES CCCC[C@@H]1NC(=O)[C@H]([C@@H](C)O)NC(=O)[C@@H]2CSSC[C@H](NC(=O)[C@H]([C@@H](C)CC)NC(=O)[C@@H]3CCCN3C(=O)[C@@H]3CCCN3C(=O)[C@H](CC(=O)O)NC(=O)[C@H](CO)NC1=O)C(=O)N[C@@H](Cc1ccc(O)cc1)C(=O)N1CCC[C@@H]1C(=O)N1CCC[C@H]1C(=O)N[C@@H](Cc1ccccc1)C(=O)N2) [Example 60]	4%	> 100000 nmol	9%	0%	11%	90%	38 nmol	60%	–
XCTASXPPQCY (HELM PEPTIDE1{[Nle].C.T.A.S.[Cha].P.P.Q.C.Y.[dP].P}$PEPTIDE1,PEPTIDE1,2:R3-10:R3|PEPTIDE1,PEPTIDE1,1:R1-13:R2$$$V2.0; SMILES CCCC[C@@H]1NC(=O)[C@@H]2CCCN2C(=O)[C@H]2CCCN2C(=O)[C@H](Cc2ccc(O)cc2)NC(=O)[C@@H]2CSSC[C@H](NC1=O)C(=O)N[C@@H]([C@@H](C)O)C(=O)N[C@@H](C)C(=O)N[C@@H](CO)C(=O)N[C@@H](CC1CCCCC1)C(=O)N1CCC[C@H]1C(=O)N1CCC[C@H]1C(=O)N[C@@H](CCC(N)=O)C(=O)N2) [Example 82]	72.9%	18 nmol	–	–	15.3%	–	–	–	44.5%

Second part, the binder after the results:

% inhibition at 100 µM [1]	IC50 [2]	% inhibition at 100 µM [3]	% inhibition at 100 µM [4]	% inhibition at 100 µM [5]	% inhibition at 100 µM [6]	IC50 [7]	% inhibition at 100 µM (Chymase, from human skin)	% inhibition at 100 µM [8]	Binder
49%	49900 nmol	9%	2%	3%	98%	39 nmol	0%	–	XCTKSDPPICY (HELM PEPTIDE1{[O=C([C@H](CCc1ccccc1)N[*:1])[*:2]].C.T.K.S.D.P.P.I.C.Y.[dP].P}$PEPTIDE1,PEPTIDE1,2:R3-10:R3|PEPTIDE1,PEPTIDE1,1:R1-13:R2$$$V2.0; SMILES CC[C@H](C)[C@@H]1NC(=O)[C@@H]2CCCN2C(=O)[C@@H]2CCCN2C(=O)[C@H](CC(=O)O)NC(=O)[C@H](CO)NC(=O)[C@H](CCCCN)NC(=O)[C@H]([C@@H](C)O)NC(=O)[C@@H]2CSSC[C@H](NC1=O)C(=O)N[C@@H](Cc1ccc(O)cc1)C(=O)N1CCC[C@@H]1C(=O)N1CCC[C@H]1C(=O)N[C@@H](CCc1ccccc1)C(=O)N2) [Example 30]
0%	> 100000 nmol	5.4%	8.7%	6%	–	52 nmol	42.3%	84.2%	cyclo(ICTKSDPAICR[dP]P) (disulfide 2-10) [Example 52]
–	18 nmol	10.4%	20.6%	13.3%	10.8%	20200 nmol	0%	4.2%	XCTASXPPQCY (HELM PEPTIDE1{[Nle].C.T.A.S.[O=C([C@@H](N[*:1])C1CCCCC1)[*:2]].P.P.Q.C.Y.[dP].P}$PEPTIDE1,PEPTIDE1,2:R3-10:R3|PEPTIDE1,PEPTIDE1,1:R1-13:R2$$$V2.0; SMILES CCCC[C@@H]1NC(=O)[C@@H]2CCCN2C(=O)[C@H]2CCCN2C(=O)[C@H](Cc2ccc(O)cc2)NC(=O)[C@@H]2CSSC[C@H](NC1=O)C(=O)N[C@@H]([C@@H](C)O)C(=O)N[C@@H](C)C(=O)N[C@@H](CO)C(=O)N[C@@H](C1CCCCC1)C(=O)N1CCC[C@H]1C(=O)N1CCC[C@H]1C(=O)N[C@@H](CCC(N)=O)C(=O)N2) [Example 84]
